Experimental findings from PMC8017925, “Structural basis for differential recognition of phosphohistidine-containing peptides by 1-pHis and 3-pHis monoclonal antibodies” (Proceedings of the National Academy of Sciences of the …, 2021) are described below.

This assay deals with ACLYana-3-pHis peptide (AGAG-3-pHis-AGAG). The experiment in a line: BLI binding kinetics of 3-pHis Fabs with affinity-purified pHis peptide. The protocol:
Biolayer interferometry (BLI) studies were performed to determine the relative affinity of pHis Fabs to in situ phosphorylated His peptides versus the phosphomimetic substrates. The N-terminally biotinylated peptides were immobilized on streptavidin biosensors and the rate of association (ka) and dissociation (kd) were determined by varying the pHis Fab concentration. Equilibrium dissociation constants (KD) were determined by fitting the experimental data to a 1:1 Langmuir binding model. ACLYana-1-pTza and ACLYana-3-pTza peptides were used to determine affinity to 1-pHis and 3-pHis Fabs, respectively (Fig. 3 A–E and Table 1). […] The two isomers were separated from each other by passing the reaction through affinity columns containing 1-pHis mAbs using SC1-1 or SC50-3 IgGs or 3-pHis mAbs using SC39-4, SC44-8, and SC56-2 IgGs. The eluates thus contained either predominantly 1-pHis or 3-pHis peptides. These peptides were used to determine the affinity to their respective isomer class of pHis Fabs (Fig. 3 F–J, Table 1, and SI Appendix, Fig. S5). […] This experimental observation is well supported by the higher number of hydrogen bonds that support the SC44-8:3-pTza interaction compared to other pHis Fabs (SI Appendix, Table S5). […] There are at least three reasons for the lower affinity of the mAbs for pHis peptides compared to pTza peptides: The continuous hydrolysis of phosphate from the pHis peptides during the course of the experiment (SI Appendix, Fig. S6), a reduction in the number of hydrogen bond interactions due to one less nitrogen in the imidazole ring compared to triazolyl ring (Fig. 4 and SI Appendix, Fig. S8), and inherently different electronic properties of the imidazole and triazolyl rings in His and Tza, respectively ([20]).
Fig. 3. Binding kinetics of pHis Fabs with cognate pTza and pHis peptides. BLI studies of immobilized peptides (ACLYana-1/3-pTza and phosphorylated ACLYana) with varying concentrations of the pHis Fabs were carried out in triplicate on an Octet Red96e instrument (FortéBio). SC1-1 (A) and SC50-3 (B) pHis Fab interaction with their ACLYana-1-pTza peptides. SC39-4 (C), SC44-8 (D), and SC56-2 (E) pHis Fabs interactions with ACLYana-3-pTza peptides. SC1-1 (F), SC50-3 (G), SC39-4 (H), SC44-8 (I), and SC56-2 (J) pHis Fabs interactions with their affinity-purified ACLYana-pHis peptides are represented, Right. The experimental data are represented in the black dashed lines and the nonlinear least-squares fitting was represented in the red continuous lines. The χ^2 for the goodness of fit is under 1.0 for the all the plots.
The binding kinetics of pHis Fabs with the peptides (pTza and pHis) were evaluated with an Octet RED96e (FortéBio). Streptavidin-coated biosensors (FortéBio) were presoaked in buffer containing 50 mM Hepes pH 8.0, 150 mM NaCl, 0.05% Tween-20, and 0.2% BSA for 15 min. The biotinylated pTza peptides or pHis peptides (20 nM) with and without phosphoramidate treatment were coated onto these streptavidin biosensors and analyzed for their binding to varying concentrations of the pHis Fabs with an association time of 120 s and dissociation time of 200 s. The entire set of experiments was repeated three times. The data were analyzed using the Octet software (FortéBio) and the rates of association and dissociation were obtained by global fitting data to the 1:1 Langmuir interaction model. […]
Peptides used in the DSF and BLI experiments were synthesized by the Salk Peptide Synthesis Core. These peptides were N-terminally biotinylated and C-terminally amidated. They were synthesized using standard Fmoc chemistry on a Gyros Protein Technologies Tribute peptide synthesizer with UV monitoring. Following the deprotection, peptides were analyzed by mass spectrometry and analytical HPLC by the Proteomics Core at Salk. The peptides were HPLC purified to 99% purity by 21st Century Biochemicals, Inc. The Fmoc-pTza’s were synthesized at 10 g scale for incorporation into the peptides. […]
(In general: BLI is a label-free optical method that tracks binding on a fibre tip over time.)

[1] abbreviates: BLI, affinity-purified ACLYana-3-pHis peptide, 1:1 Langmuir global fit, triplicate.

B1: SC44-8: Fab of rabbit 3-pHis-specific monoclonal antibody with proclivity for GpHAGA motif (antibody, V domains shown)
VH: QSVKESGRGLVQPGGSLTLTCTASGFSIDSYGFSWVRQAPGKGLEHIGYLTAGGRAFYASWAKSRSTITRNTNENTVTLKMTSLTAADTATYFCAKLGSGNPVAIWGPGTLVTVSS
VL: QVLTQTPSFTSAAVGGTVTINCQSSQSVWRNKNLAWYQQKPGQPPKRLIYAIATLDSGVPSRFSGSGSGTQFTLTISDVQCDDAATYYCVGHYGSENDAYYAFGGGTEVVVK
One may read the Kd as the concentration at which binding is half-saturated. A higher Kd goes with weaker binding. Under setting [1], B1 registered a ka of 93600 ± 319 M⁻¹ s⁻¹ and a kd of 0.0017 ± 3.32e-06 s⁻¹. This molecule also showed a Kd (BLI, ACLYana phosphorylated with phosphoramidate (8 h, 23 °C), 3-pHis isomer affinity-purified on 3-pHis IgG column, immobilized on streptavidin biosensors, Hepes pH 8.0, 1:1 Langmuir global fit, triplicate) of 18.2 nM. The “BLI signal (maximum) with ACLYana” value (phosphorylated ACLYana, GpHAGAG motif) is given as 2.0 nm. Moreover, the “affinity for 3-pHis peptides, times (fold) weaker than for the 3-pTza peptide” value (ratio of BLI KD, 3-pHis versus 3-pTza peptide) is listed as 75 times.
